Data published in US20150353911.

Target: FVII-186, P08709
Sequence (P08709 whole entry, looked up): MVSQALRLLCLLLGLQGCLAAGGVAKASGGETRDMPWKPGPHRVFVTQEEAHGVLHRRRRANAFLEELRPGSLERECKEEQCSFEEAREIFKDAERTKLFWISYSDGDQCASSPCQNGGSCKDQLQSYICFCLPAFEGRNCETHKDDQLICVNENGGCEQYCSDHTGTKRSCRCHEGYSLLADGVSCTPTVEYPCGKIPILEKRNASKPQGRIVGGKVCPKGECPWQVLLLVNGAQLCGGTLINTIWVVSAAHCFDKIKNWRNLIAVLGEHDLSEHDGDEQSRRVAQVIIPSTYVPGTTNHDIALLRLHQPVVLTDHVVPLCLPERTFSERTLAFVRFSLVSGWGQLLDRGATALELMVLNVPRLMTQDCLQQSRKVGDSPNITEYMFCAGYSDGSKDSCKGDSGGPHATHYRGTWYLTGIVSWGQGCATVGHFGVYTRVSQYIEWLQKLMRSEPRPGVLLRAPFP

B1: SUMO protease (Invitrogen Cat. No. 12588-018) (protein)
chain: LVPELNEKDDDQVQKALASRENTQLMNRDNIEITVRDFKTLAPRRWLNDTIIEFFMKYIEKSTPNTVAFNSFFYTNLSERGYQGVRRWMKRKKTQIDKLDKIFTPINLNQSHWALGIIDLKKKTIGYVDSLSNGPNAMSFAILTDLQKYVMEESKHTIGEDFDLIHLDCPQQPNGYDCGIYVCMNTLYGSADAPLDFDYKDAIRMRRFIAHLILTDALK
**Q.** How did the “cleavage of SUMO from FVII-186 (reducing SDS-PAGE)” value turn out when B1 was run?
**A.** showed almost complete conversion of FVII-186 to the desired FVIIHC
